# Source: patent US20120177632A1, “METHODS OF OPTIMIZING DISEASE TREATMENT” (priority 2011, published 2012)
# B1: rIFNβ: recombinant mouse IFN-β (protein, UniProt P01575 22-182, looked up)
# Interferon beta: INYKQLQLQERTNIRKCQELLEQLNGKINLTYRADFKIPMEMTEKMQKSYTAFAIQEMLQNVFLVFRNNFSSTGWNETIVVRLLDELHQQTVFLKTVLEEKQEERLTWEMSSTALHLKSYYWRVQRYLKLMKYNSYAWMVVRAEIFRNFLIIRRLTRNFQN
# Tests used:
# mitochondrial ROS = test: ATP-induced mitochondrial ROS generation in macrophages (MITOSOX Red, flow cytometry); format: cell-based; conditions: 1,000 units/ml added 24 hr prior to 5 mM ATP for 30 min
# Description: This example assessed whether ROS generated by the mitochondria may play a role in NLRP3 inflammasome activation. We tested whether IFNβ suppresses ROS generated by mitochondria with MITOSOX™ Red (Invitrogen™). A time course of ATP-induced mitochondrial ROS generation in macrophages was generated using macrophages incubated with 5 mM ATP for the time indicated in FIG. 12A. Macrophages were incubated with 5 mM ATP for indicated time at 37° C. in complete RPMI medium. ROS activity increase was calculated as mean fluorescence intensity value increase (percent) of MITOSOX™ RED staining by flow cytometry. An increase of mean fluorescent intensity (MFI) of the MITOSOX™ staining is shown in FIG. 12(A, B) as the reference point of MFI at time=0 (i.e., no ATP treatment). The ROS activity increase was calculated as mean fluorescence intensity value increase (percent) of MITOSOX™ Red staining by flow cytometry (FIG. 12A).
# Suppression of mitochondrial ROS generation by type-1 IFNs was examined. Cells were incubated with 5 mM ATP for 30 min rIFNα or rIFNβ (1,000 units/mL) was added 24 hr prior to the ATP treatment. […]
# GTP-Rac1 = GTP-Rac1 level in bone marrow-derived macrophages (western blot); format: cell-based, mouse; conditions: WT BMMs; 1,000 units/ml 24 h pretreatment, then 5 mM ATP 5, 10 or 15 min
# Description: Bone marrow-derived macrophages obtained from wild-type mice were pretreated with 1,000 units/ml rIFNα or IFNβ for 24 hours before treatment with 5 mM ATP for 5, 10, or 15 minutes. Cells were then lysed, and total GTP-Rac1 was compared to GTP-Rac1 by western blot first using an antibody specific for GTP-Rac1, followed by membrane stripping and probing with an antibody recognizing total Rac1. GTP-Rac1 signal densitometry for each sample was normalized to total Rac1 using NIH Image/Image J software.
# gp91^phox = test: gp91phox mRNA in bone marrow-derived macrophages (qRT-PCR); format: cell-based, mouse; conditions: WT BMMs; 1,000 units/ml, 24 h
# Description: Nlrp3, Asc, Casp1 and Txnip mRNA expression were evaluated by qRT-PCR. Bone marrow-derived macrophages from wild-type and Ifnar1^−/− mice were incubated with or without 100 ng/ml Ultrapure LPS for 3 hours, and the mRNA expression for each gene was measured by RT-PCR using standard techniques, showing no significant differences between the samples. Similarly, cell surface expression of ATP receptor P2X7R and CD39 (nucleoside triphosphate diphosphohydrolase 1), an ectonucleotidase that hydrolyzes extracellular ATP, on wild-type and Ifnar1^−/− macrophages were determined to be equivalent by flow cytometry using standard techniques. […] Wild-type bone marrow-derived macrophages were incubated with or without 1,000 units/ml rIFNβ for 24 hours before determining levels of gp91^phox mRNA in the total RNA by qRT-PCR using standard techniques. […] DQ ovalbumin staining locates lysosomes. The proportion of cells with DQ ovalbumin leakage to cytoplasm due to ruptured lysosomes was evaluated by incubating wild-type and Ifnar1^−/− macrophages with DQ ovalbumin (10 μg/ml) alone or a combination of DQ ovalbumin (10 μg/ml) and Alum (250 μg/ml) for 1 hour. Wild-type cells were also measured with and without exposure to rIFNα.
# NADPH oxidase = test: p47phox foci (active NADPH oxidase) in bone marrow-derived macrophages, confocal microscopy; format: cell-based, mouse; conditions: WT BMMs; 1,000 units/ml 24 h pretreatment, then 5 mM ATP 1 h
molecule,measurement,setting,value
B1,mitochondrial ROS generation,mitochondrial ROS,suppressed
same,cellular levels of GTP-Rac1 (Rac1 activation),GTP-Rac1,inhibit activation of GTP Rac1
same,gp91phox mRNA expression,gp91^phox,did not affect gp91^phox mRNA expression
same,formation of p47phox foci,NADPH oxidase,inhibited the formation of p47^phox foci
